Assay results: patent US20260209306A1 (ALIVEGEN, published 2026)
Positions count from the first letter of the chain named.

Legend:
myostatin [1] = molecular target: T1, myostatin (UniProt O14793 267-375); assay: cell-based or functional assay
T1 sequence (looked up): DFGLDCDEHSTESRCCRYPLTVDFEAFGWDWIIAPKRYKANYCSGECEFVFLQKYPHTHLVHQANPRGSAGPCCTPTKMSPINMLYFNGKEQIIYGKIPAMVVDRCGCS

activin A = molecular target: T2, activin A (UniProt P08476 311-426); assay: cell-based or functional assay
T2 sequence (looked up): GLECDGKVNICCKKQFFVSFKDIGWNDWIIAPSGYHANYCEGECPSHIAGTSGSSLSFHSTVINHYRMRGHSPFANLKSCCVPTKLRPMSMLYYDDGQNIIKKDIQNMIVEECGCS

activin B = molecular target: T3, activin B (UniProt P09529 293-407); assay: cell-based or functional assay
T3 sequence (looked up): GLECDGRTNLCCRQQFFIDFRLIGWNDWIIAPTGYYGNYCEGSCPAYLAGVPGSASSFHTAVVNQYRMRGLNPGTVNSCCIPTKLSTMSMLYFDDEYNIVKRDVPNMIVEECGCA

BMP9 [2] = molecular target: T4, BMP9 (UniProt Q9UK05 320-429); assay: cell-based or functional assay
T4 sequence (looked up): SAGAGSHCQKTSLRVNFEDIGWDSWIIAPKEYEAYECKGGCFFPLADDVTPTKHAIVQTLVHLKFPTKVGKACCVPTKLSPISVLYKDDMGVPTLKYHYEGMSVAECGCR

BMP9 [3] = molecular target: T4, BMP9; assay: Octet Red BLI; trap loaded on AHC biosensor
Procedure: (§1) Myostatin and BMP9 binding activities of various hybrid ActRIIB ligand trap proteins were initially analyzed using Octect Red (ForteBio). Purified proteins or conditioned media were individually loaded to AHC biosensors with maximum loading. Following a baseline washing phase, the sensors were exposed to 10 nM myostatin or BMP9, respectively, for an association step followed by a dissociation step. All experiments were performed with shaking at 1,000 rpm. Binding activity was analyzed using ForteBio's software with KD being calculated using the ratio Kd/Ka.

myostatin [4] = molecular target: T1, myostatin; assay: Octet Red BLI; protein on AHC biosensor, 10 nM ligand; legend +++ KD <10^-8M
Procedure: as §1

B1: wild-type ActRIIB-ECD-Fc fusion protein (Fc fusion, not shown: a dimerising Fc or GST)
chain: ETRECIYYNANWELERTNQSGLERCEGEQDKRLHCYASWRNSSGTIELVKKGCWLDDFNCYDRQECVATEENPQVYFCCCEGNFCNERFTHLPEAGGPEVTYEPPPTAPTGGGGSESKYGPPCPPCP
- Cell-Based IC50 (nM) Against Myostatin; C2C12-CAGA-luc reporter (myostatin [1]): 1.24 nM
- Cell-Based IC50 (nM) Against Activin A; C2C12-CAGA-luc reporter (activin A): 1.27 nM
- Cell-Based IC50 (nM) Against Activin B; C2C12-CAGA-luc reporter (activin B): 1.04 nM
- Cell-Based IC50 (nM) Against BMP9; C2C12-BRE-luc reporter (BMP9 [2]): 3.4 nM

B2: AG-0011 hybrid ActRIIB ligand trap protein (Fc fusion)
chain: B1 chain with E28D, A68E, T69K, E70K, E71D, N72S, Q74E, F84M
notes: ECD - linker - hinge linker - Fc; signal peptide left out; not shown: human Fc domain
- binding result (BMP9 [3]): no binding (tested: 10 nM BMP9)
- KD (myostatin [4]): < 10 nM

B3: AG-0014 hybrid ActRIIB ligand trap protein (Fc fusion, not shown: a dimerising Fc or GST)
chain: B1 chain with E26Y, E28D, Q29K, L33R
- Cell-Based IC50 (nM) Against Myostatin; C2C12-CAGA-luc reporter (myostatin [1]): 0.95 nM
- Cell-Based IC50 (nM) Against Activin A; C2C12-CAGA-luc reporter (activin A): 1.15 nM
- Cell-Based IC50 (nM) Against Activin B; C2C12-CAGA-luc reporter (activin B): 2.1 nM

B4: AG-0027 hybrid ActRIIB ligand trap protein (Fc fusion, not shown: a dimerising Fc or GST)
chain: B1 chain with E28D, F58I, E70K
- Cell-Based IC50 (nM) Against Myostatin; C2C12-CAGA-luc reporter (myostatin [1]): 1.14 nM
- Cell-Based IC50 (nM) Against Activin A; C2C12-CAGA-luc reporter (activin A): 1.62 nM
- Cell-Based IC50 (nM) Against Activin B; C2C12-CAGA-luc reporter (activin B): 1.3 nM
